Data published in paper PMC7311471, “The iron–sulphur cluster in human DNA2 is required for all biochemical activities of DNA2”.

Key:
[1] = target: T1, DNA2 D277A (human, UniProt P51530 1-1060, D277A); experiment: EMSA; similar affinity as WT; EMSA: 25 mM Tris-HCl pH 8.0, 0.1 mg/ml BSA, 5 mM EDTA, with or without 1 mM DTT, 30 min on ice; 4-5 nM FAM-DNA or 1 nM 32P-DNA; conditions: protein: recombinant; tags: FLAG; 5' flap 32 nt on strand 1; 1:2 and 2:3 paired
T1 sequence: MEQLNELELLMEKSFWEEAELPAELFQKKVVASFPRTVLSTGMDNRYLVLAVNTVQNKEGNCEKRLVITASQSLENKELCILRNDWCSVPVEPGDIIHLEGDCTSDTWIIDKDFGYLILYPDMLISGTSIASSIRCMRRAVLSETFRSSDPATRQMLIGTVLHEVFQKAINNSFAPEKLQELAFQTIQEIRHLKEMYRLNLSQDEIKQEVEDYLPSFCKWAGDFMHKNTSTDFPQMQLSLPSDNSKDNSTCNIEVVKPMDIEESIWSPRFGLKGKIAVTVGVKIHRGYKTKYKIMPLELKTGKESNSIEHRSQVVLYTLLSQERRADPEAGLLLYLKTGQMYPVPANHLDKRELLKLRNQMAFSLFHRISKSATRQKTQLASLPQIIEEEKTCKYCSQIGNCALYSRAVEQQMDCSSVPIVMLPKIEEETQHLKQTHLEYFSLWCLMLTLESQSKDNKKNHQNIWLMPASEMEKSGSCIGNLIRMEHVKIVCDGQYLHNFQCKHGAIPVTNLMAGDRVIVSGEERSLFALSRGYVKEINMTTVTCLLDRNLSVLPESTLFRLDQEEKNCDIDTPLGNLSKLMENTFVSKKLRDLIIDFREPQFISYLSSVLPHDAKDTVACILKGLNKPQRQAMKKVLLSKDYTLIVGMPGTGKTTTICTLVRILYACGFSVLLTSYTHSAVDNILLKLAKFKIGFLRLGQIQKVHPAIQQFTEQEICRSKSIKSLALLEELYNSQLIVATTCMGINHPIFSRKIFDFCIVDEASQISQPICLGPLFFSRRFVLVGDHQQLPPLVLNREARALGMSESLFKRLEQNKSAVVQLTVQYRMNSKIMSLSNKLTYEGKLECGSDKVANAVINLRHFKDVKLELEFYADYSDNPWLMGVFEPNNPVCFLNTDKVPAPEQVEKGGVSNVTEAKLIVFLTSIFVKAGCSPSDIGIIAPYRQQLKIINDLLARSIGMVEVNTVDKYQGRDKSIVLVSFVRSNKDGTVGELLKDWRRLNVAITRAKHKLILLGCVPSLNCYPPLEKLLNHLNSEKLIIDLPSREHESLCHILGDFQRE

[2] = target: T1, DNA2 D277A; experiment: EMSA; EMSA: 25 mM Tris-HCl pH 8.0, 0.1 mg/ml BSA, 5 mM EDTA, with or without 1 mM DTT, 30 min on ice; 4-5 nM FAM-DNA or 1 nM 32P-DNA; conditions: protein: recombinant; tags: FLAG; label: 3' 32P cordycepin on X04; fork 1:2, 5' arm 32 nt, 3' arm 30 nt

B1: 5' flap (FAM) (mixed)
DNA 1: ATCGATAGTCGGATCCTCTAGACAGCTCCATGTAGCAAGGCACTGGTAGAATTCGGCAGCGT
DNA 2: GACGCTGCCGAATTCTACCAGTGCCTTGCTAGGACATCTTTGCCCACCTGCAGGTTCACCC
DNA 3: TGGGTGAACCTGCAGGTGGGCAAAGATGTCC
- binding result [1]: binds

B2: Y-structure (32P) (mixed)
DNA 1: B1 DNA 1
DNA 2: B1 DNA 2
- binding result [2]: binds
